Assay results as given in doi:10.1101/085266.

What was measured:
[1] = biological target: Bacillaceae bacterium MTCC 10057 encapsulin capsid protein (Bacillaceae bacterium MTCC 10057); assay: co-purification with encapsulin capsids
[2] = biological target: Bacillaceae bacterium MTCC 10057 Geobac cargo protein with C-terminal His6 tag (Bacillaceae bacterium MTCC 10057); assay: SEC
[3] = biological target: Kuenenia stuttgartiensis encapsulin without the N-terminal cytochrome domain (Kuenenia stuttgartiensis) (UniProt Q1Q6L7); assay: co-purification with encapsulin capsids
[4] = biological target: Streptomyces sp. AA4 encapsulin capsid protein (Streptomyces sp. AA4); assay: co-purification with encapsulin capsids
[5] = biological target: Streptomyces sp. AA4 hemerythrin cargo with C-terminal His6 tag (Streptomyces sp. AA4); assay: SEC

Substance: Bacillaceae bacterium MTCC 10057 Ferredoxin cargo (Fer), with N-terminal targeting peptide (natural protein)
- molecules of cargo per 180 subunit capsid (molecules per 180 subunit capsid) [1]: 10

Substance: Bacillaceae bacterium MTCC 10057 Geobac cargo protein with C-terminal His6 tag (natural protein)
- stoichiometry N [2]: 2

Substance: Bacillaceae bacterium MTCC 10057 Geobac cargo protein, with C-terminal targeting peptide (natural protein)
- molecules of cargo per 180 subunit capsid (molecules per 180 subunit capsid) [1]: 150

Substance: NIR domain (N-terminal cupredoxin domain) of the Kuenenia stuttgartiensis NIR-HAO fusion protein (domain or fragment)
- copies of cargo per 180mer capsid (copies per 180mer capsid) [3]: 15

Substance: Streptomyces sp. AA4 hemerythrin cargo (Heme), with C-terminal targeting peptide (natural protein)
- molecules of cargo per 60 subunit capsid (molecules per 60 subunit capsid) [4]: 20

Substance: Streptomyces sp. AA4 hemerythrin cargo with C-terminal His6 tag (natural protein)
- stoichiometry N [5]: 2
